Data on one molecule can be found in PMC3598077 (EMBO Molecular Medicine, 2013).

The target of the assay is T1, Recombinant His-RAD51 fusion protein (UniProt Q06609 1-339).
T1 sequence: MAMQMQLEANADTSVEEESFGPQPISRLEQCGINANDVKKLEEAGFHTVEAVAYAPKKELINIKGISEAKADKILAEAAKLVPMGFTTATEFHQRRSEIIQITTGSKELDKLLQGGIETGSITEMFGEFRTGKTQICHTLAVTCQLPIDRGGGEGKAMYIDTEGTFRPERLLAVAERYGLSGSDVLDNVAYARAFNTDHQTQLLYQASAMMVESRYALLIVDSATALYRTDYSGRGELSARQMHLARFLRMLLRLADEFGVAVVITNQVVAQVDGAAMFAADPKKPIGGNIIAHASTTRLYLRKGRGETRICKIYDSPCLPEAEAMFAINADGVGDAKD
Nature of the assay: SPR. (In general: Surface plasmon resonance follows binding to a sensor surface in real time, without labels.)

For FGGSFRTASNKEIKLSEHNIKKSKMFFKDIEEQYPT (domain or fragment) [Recombinant GST-BRC fusion protein (containing BRCA2-1005-1040, fused with GST at its N-terminal)], the binding result is reported as “binds”.
